Assay results as given in patent US20240425606A1, “ANTI-IL-11RA ANTIBODIES” (Lassen Therapeutics 1, Inc., priority 2021, published 2024).
Changes are numbered by the printed parent chain. Names and notes keep the numbering of the source.

T1: human IL-11Rα (human, UniProt Q14626 23-363, limits assumed)
T1 construct: Protein coated on ELISA plates and used in solution for BLI; also called hIL-11Rα; hIL-11R
T1 sequence: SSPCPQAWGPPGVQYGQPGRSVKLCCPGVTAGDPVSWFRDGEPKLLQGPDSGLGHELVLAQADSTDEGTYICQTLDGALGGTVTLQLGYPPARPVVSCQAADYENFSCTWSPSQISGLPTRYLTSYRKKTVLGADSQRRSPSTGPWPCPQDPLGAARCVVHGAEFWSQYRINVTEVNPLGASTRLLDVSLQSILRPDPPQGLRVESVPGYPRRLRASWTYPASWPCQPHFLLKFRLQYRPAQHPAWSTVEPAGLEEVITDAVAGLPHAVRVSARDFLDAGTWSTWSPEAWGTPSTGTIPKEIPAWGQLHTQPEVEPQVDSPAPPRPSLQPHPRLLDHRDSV

T2: hIL-1 IR (Homo sapiens, UniProt Q14626)
T2 sequence (Q14626 23-422): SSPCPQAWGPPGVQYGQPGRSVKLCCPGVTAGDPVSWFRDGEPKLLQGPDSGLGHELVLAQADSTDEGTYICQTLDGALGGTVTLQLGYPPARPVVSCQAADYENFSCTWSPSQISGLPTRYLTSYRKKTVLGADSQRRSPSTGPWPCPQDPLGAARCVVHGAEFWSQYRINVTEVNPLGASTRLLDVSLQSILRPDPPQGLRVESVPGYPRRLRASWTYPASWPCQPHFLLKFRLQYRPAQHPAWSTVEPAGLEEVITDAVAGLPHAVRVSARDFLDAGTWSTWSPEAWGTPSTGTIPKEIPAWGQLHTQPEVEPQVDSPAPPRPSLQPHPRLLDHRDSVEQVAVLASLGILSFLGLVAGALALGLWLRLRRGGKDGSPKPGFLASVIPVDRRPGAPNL

B1: mAb21 (antibody, human IgG4, V domains shown)
VH: EVQLLESGGGLVQPGGSLRLSCAASGFTFSHYSMTWVRQAPGKGLEWVSSIVPYGDLTQYADSVKGRFTISRDNSKNTLYLQMNSLRAEDTAVYYCAKGPGWGSFDLWGRGTLVTVSS
VL: DIQMTQSPSSLSASVGDRVTITCQASQDINNYLNWYQQKPGKAPKLLIYDASNLQTGVPSRFSGSGSGTDFTFTISSLQPEDIATYYCQQHESQSPTFGPGTKVDIK
notes: Expressed as human IgG4 (S228P EU)
B2: mAb23 (antibody, human IgG4, V domains shown)
VH: B1 VH with H31K
VL: B1 VL
notes: as for B1
B3: mAb29 (antibody, human IgG4, V domains shown)
VH: B1 VH with H31S
VL: B1 VL
notes: as for B1
B4: mAb31 (antibody, human IgG4, V domains shown)
VH: B1 VH with H31V
VL: B1 VL
notes: as for B1
B5: mAb20: anti-IL-11Rα antibody; VH SEQ ID NO: 231, VL SEQ ID NO: 232; heavy chain Kabat position 31 variant of mAb5 (antibody, V domains shown)
VH: B1 VH with H31G
VL: B1 VL
modifications: mAb20 VH Chain; mAb20 VL Chain
notes: anti-IL-11Rα antibody; heavy chain Kabat position 31 variant of mAb5
B6: mAb22: anti-IL-11Rα antibody; VH SEQ ID NO: 235, VL SEQ ID NO: 236; heavy chain Kabat position 31 variant of mAb5 (antibody, V domains shown)
VH: B1 VH with H31I
VL: B1 VL
modifications: mAb22 VH Chain; mAb22 VL Chain
notes: as for B5
B7: mAb24: anti-IL-11Rα antibody; VH SEQ ID NO: 239, VL SEQ ID NO: 240; heavy chain Kabat position 31 variant of mAb5 (antibody, V domains shown)
VH: B1 VH with H31L
VL: B1 VL
modifications: mAb24 VH Chain; mAb24 VL Chain
notes: as for B5
B8: mAb25: anti-IL-11Rα antibody; VH SEQ ID NO: 241, VL SEQ ID NO: 242; heavy chain Kabat position 31 variant of mAb5 (antibody, V domains shown)
VH: B1 VH with H31M
VL: B1 VL
modifications: mAb25 VH Chain; mAb25 VL Chain
notes: as for B5
B9: mAb26: anti-IL-11Rα antibody; VH SEQ ID NO: 243, VL SEQ ID NO: 244; heavy chain Kabat position 31 variant of mAb5 (antibody, V domains shown)
VH: B1 VH with H31N
VL: B1 VL
modifications: mAb23 VH Chain; mAb26 VL Chaim
notes: as for B5
B10: mAb27: anti-IL-11Rα antibody; VH SEQ ID NO: 245, VL SEQ ID NO: 246; heavy chain Kabat position 31 variant of mAb5 (antibody, V domains shown)
VH: B1 VH with H31P
VL: B1 VL
modifications: mAb27 VH Chain; mAb27 VL Chain
notes: as for B5
B11: mAb28: anti-IL-11Rα antibody; VH SEQ ID NO: 247, VL SEQ ID NO: 248; heavy chain Kabat position 31 variant of mAb5 (antibody, V domains shown)
VH: B1 VH with H31R
VL: B1 VL
modifications: mAb28 VH Chain; mAb28 VL Chain
notes: as for B5
B12: mAb30: anti-IL-11Rα antibody; VH SEQ ID NO: 251, VL SEQ ID NO: 252; heavy chain Kabat position 31 variant of mAb5 (antibody, V domains shown)
VH: B1 VH with H31T
VL: B1 VL
modifications: mAb30 VH Chain; mAb30 VL Chain
notes: as for B5
B13: mAb32: anti-IL-11Rα antibody; VH SEQ ID NO: 255, VL SEQ ID NO: 256; heavy chain Kabat position 31 variant of mAb5 (antibody, V domains shown)
VH: B1 VH with H31Y
VL: B1 VL
modifications: mAb32 VH Chain; mAb32 VL Chain
notes: as for B5
B14: mAb16: anti-IL-11Rα antibody; VH SEQ ID NO: 223, VL SEQ ID NO: 224; heavy chain Kabat position 31 variant of mAb5 (antibody, V domains shown)
VH: B1 VH with H31A
VL: B1 VL
modifications: mAb16 VH Chain; mAb16 VL Chain
notes: as for B5
B15: mAb17: anti-IL-11Rα antibody; VH SEQ ID NO: 225, VL SEQ ID NO: 226; heavy chain Kabat position 31 variant of mAb5 (antibody, V domains shown)
VH: B1 VH with H31D
VL: B1 VL
modifications: mAb17 VH Chain; mAb17 VL Chain
notes: as for B5
B16: mAb18: anti-IL-11Rα antibody; VH SEQ ID NO: 227, VL SEQ ID NO: 228; heavy chain Kabat position 31 variant of mAb5 (antibody, V domains shown)
VH: B1 VH with H31E
VL: B1 VL
modifications: mAb18 VH Chain; mAb18 VL Chain
notes: as for B5
B17: mAb19: anti-IL-11Rα antibody; VH SEQ ID NO: 229, VL SEQ ID NO: 230; heavy chain Kabat position 31 variant of mAb5 (antibody, V domains shown)
VH: B1 VH with H31F
VL: B1 VL
modifications: mAb19 VH Chain; mAb19 VL Chain
notes: as for B5

Molecular target: T1, human IL-11Rα
Assay: BLI (Octet RED96e), mAb on anti-human constant domain (AHC) biosensors, hIL-11R in solution
Conditions: not given
Description: (§1) A further series of antibodies were designed in which the residue at Kabat position 31 of the heavy chain was varied (mAbs 16-32). In this case an alternate biolayer interferometry assay was used to initially rank the antibodies compared to mAb5, the closest relative in sequence to mAbs 16-32. MAbs were loaded onto anti-human constant domain (AHC) biosensors (FortdBio) in 10× kinetics buffer consisting of PBS, 0.1% BSA, 0.02% Tween 20 for 120 s to achieve a spectral shift value of 0.8 to 1.2 nm. Association was carried out in the presence of 2-fold dilution series of hIL-1 IR and was allowed to proceed for 120 s. Dilution series started 10 nM. The dissociation in 10× kinetics buffer for 1200 s. Binding kinetic measurements were taken on an Octet RED96e instrument.

Molecule	Kd [nM]	kon [M⁻¹ s⁻¹]	koff [s⁻¹]
B1	< 0.03	750000	
B2	< 0.03	720000	
B3	0.03	610000	1.8e-05
B4	< 0.03	690000	

Molecular target: T2, hIL-1 IR
Assay: Alternate biolayer interferometry assay (AHC biosensors) ranking mAbs 16-32 against mAb5
Format: binding
Conditions: compared to mAb5
Description: as §1

Molecule	qualitative assessment
B5	similar
B6	similar
B7	similar
B8	similar
B9	decreased
B10	decreased
B11	similar
B12	decreased
B13	similar
B14	similar
B15	decreased
B16	decreased
B17	similar
